In US20150376243A1, “Use of AXMI184 for the Control of Rootworm Insects” (ATHENIX CORP., priority 2013, published 2015):

Tests used:
western corn rootworm = experiment: Field trial of T1 maize plants, corn rootworm root injury (CRWNIS); type: in vivo, Diabrotica virgifera; conditions: two locations in Iowa; 750 non-diapausing western corn rootworm eggs per plant; scale 0.00 no injury to 3.00 three entire nodes pruned
Procedure: T1 plants expressing optAxmi184 were tested at two locations in Iowa. Each experimental unit consisted of a one-row plot of maize measuring approximately 15 feet. Plots were arranged using a randomized complete block design with four replications. Efficacy against western corn rootworm was determined by evaluating up to eight maize roots per plot. Inbreds B110 and B116, a CRW-susceptible commercial hybrid, and two CRW control standards: B110 with a standard granular insecticide (FORCE® 3G), and B110 with an insecticidal seed treatment (PONCHO® 1250) were used as controls.
Fields were prepared for this study using cultural practices similar to those used in commercial maize fields in Iowa. Plants not containing transgenic events for CRW control were identified and excluded from the study using an application of 16 oz/A of glyphosate when plants were at the V1 leaf stage. Five to ten days later, the number of positive and negative plants in each plot was recorded. Negative plants were then removed and the remaining positive plants were thinned to 8 plants per row. All plants were then manually infested with non-diapausing western corn rootworm eggs. The eggs were suspended in a dilute agar solution and calibrated to deliver 750 eggs per plant for all plots.
Roots were dug, washed and evaluated for CRW injury after a period of larval feeding. […]

[1] = system: western corn rootworm (Diabrotica virgifera); experiment: Root damage in T0 transgenic maize in root-trainer containers infested with western corn rootworm eggs (CRWNIS); type: in vivo; conditions: T0 maize plants containing optAxmi184 and expressing detectable AXMI184; ~125 non-diapausing eggs per plant; assessed after fifteen days; versus control plants infested in the same manner; FIG. 1
Excerpt: Transgenic maize plants transformed with an optimized version of Axmi184 (optAxmi184, set forth herein as SEQ ID NO:2) were obtained by Agrobacterium-mediated transformation. Plants shown by PCR analysis to contain the appropriate Axmi184 construct were selected, and transferred to root trainer containers.
T0 plants containing optAxmi184 were transplanted to root-trainer containers and propagated for approximately three weeks. Individual plants were then each infested with ˜125 non-diapausing western corn rootworm (Diabrotica virgifera) eggs. Plants were analyzed for expression of AXMI184 protein by Western blot analysis using an anti-AXMI184 antibody. Plants expressing detectable amounts of AXMI184 were selected for analysis. After fifteen days, the amount of root damage in each plant was assessed using the Node Injury Scale (CRWNIS) (Oleson et al. 2005. J. Econ Entomol. 98(1): 1-8), where 0.00 is no injury and 3.00 is all roots pruned to within 1.5 inches of the stalk on three entire nodes.

B1: AXMI184: Pesticidal protein SEQ ID NO:3 from Bacillus thuringiensis strain ATX14775; expressed in maize from optimized gene optAxmi184 (SEQ ID NO:2) (protein, listed as Bacillus thuringiensis)
chain: MNMNKNNTKLSARALPSFIDYFNGIYGFATGIKDIMNMIFKTDTGGDLTLDEILKNQQLLNDISGKLDGVNGSLNDLIAQGNLNTELSKEILKIANEQNQVLNDVNNKLDAINTMLHVYLPKITSMLSDVMKPNYALSMQIEYLSRQLQEISDKLDIINVNVLINSTLTEITPAYQWIKYVNEKFEELTFATETTLKVKNDSASADILDELTELTELAKSVTKNDVDGFEFYLNTFHDVMVGNNLFGRSTLKTASELIAKENVKTSGSEVGNVYNFLVVLTALQAKAFLTLTTCRKLLGLADIDYTSIMNEHLNKEKEEFRVNILPILSNTFSNPNYAKVKGSDEDAKMIVEAKPGHALVGFEISNDSMTVLKVYEAKLKQNYQVDKDSLSEVIYGDMDKLLCPDQSEKIYYTNNIVFPNEYVITKIDFTKKMKTLRYEVTANSYDSSTGEIDLNKKKVESSKAEYRTLSANNDGVYMPLGVISETFLTPINGFGLQADENSRLITLTCKSYLRELLLATDLSNKETKLIVPPNSFISNIVENGSIEEGHLEPWKANNKNAYVDHTGGVNGTKALYVHEDGGVSQFMGDKLKPKTEYVIQYTVKGKPSIHLKDENTGYILYEDTNNDLEDFQTITKRFTTGTDLMRVYLILKSQSGHEAWGDNFTILEIKPAEALVSPELINPNSWITTQGASISGDKLFISLGTNGTFRQNLSLNSYSTYSISFTASGPFNVTVRNSREVLYERNNLMSSTSHISGEFKTESNNTGLYVELSRRSGGAGHISFENISIK
Western corn rootworm
  Average CRWNIS: 0.12
[1]
  amount of root damage, Node Injury Scale (CRWNIS): lower root damage than control plants
